Data published in US20160272683A1 (Novo Nordisk, published 2016).
Numbered stars: 1 amine (or outer) side, 2 acyl side, 3 side chain; on linkers, the order of the positions; unused ones are H or OH. * marks the point of attachment. C20 diacid = O=C(O)CCCCCCCCCCCCCCCCCCC(=O)*; C18 diacid = O=C(O)CCCCCCCCCCCCCCCCC(=O)*; γGlu = O=C(O)[C@H](CCC(=O)[*:2])N[*:1]

Target: T1, human amylin receptor (human calcitonin receptor + human RAMP3) (human) (UniProt P30988)
T1 sequence (looked up) 1: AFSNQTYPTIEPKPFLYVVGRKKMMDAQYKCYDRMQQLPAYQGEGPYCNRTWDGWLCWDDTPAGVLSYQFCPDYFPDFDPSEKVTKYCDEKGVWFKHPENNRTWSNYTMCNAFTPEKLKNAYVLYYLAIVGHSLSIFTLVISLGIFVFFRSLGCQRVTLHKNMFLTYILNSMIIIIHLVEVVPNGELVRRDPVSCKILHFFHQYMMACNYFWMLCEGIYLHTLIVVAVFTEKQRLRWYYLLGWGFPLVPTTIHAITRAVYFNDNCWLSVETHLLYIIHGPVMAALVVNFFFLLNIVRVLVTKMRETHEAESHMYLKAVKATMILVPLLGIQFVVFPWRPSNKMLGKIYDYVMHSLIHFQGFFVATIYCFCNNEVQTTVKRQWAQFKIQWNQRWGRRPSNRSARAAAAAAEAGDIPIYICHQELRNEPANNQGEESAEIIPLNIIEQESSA
T1 sequence (looked up) 2: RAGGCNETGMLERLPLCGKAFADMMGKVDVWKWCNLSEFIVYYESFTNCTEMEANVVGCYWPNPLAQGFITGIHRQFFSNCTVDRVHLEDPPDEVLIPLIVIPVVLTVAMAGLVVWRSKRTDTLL
Experiment: whole-cell competition vs 125I-rat amylin (Assay Va)

| Binder | IC50 |
| --- | --- |
| {C18 diacid-γGlu}-ASELSTAALGRLSAELHELATLPRTETGSESP-NH2 (SMILES CC(C)C[C@H](NC(=O)[C@H](C)NC(=O)[C@H](C)NC(=O)[C@@H](NC(=O)[C@H](CO)NC(=O)[C@H](CC(C)C)NC(=O)[C@H](CCC(=O)O)NC(=O)[C@H](CO)NC(=O)[C@H](C)NC(=O)CC[C@H](NC(=O)CCCCCCCCCCCCCCCCC(=O)O)C(=O)O)[C@@H](C)O)C(=O)NCC(=O)N[C@@H](CCCNC(=N)N)C(=O)N[C@@H](CC(C)C)C(=O)N[C@@H](CO)C(=O)N[C@@H](C)C(=O)N[C@@H](CCC(=O)O)C(=O)N[C@@H](CC(C)C)C(=O)N[C@@H](Cc1c[nH]cn1)C(=O)N[C@@H](CCC(=O)O)C(=O)N[C@@H](CC(C)C)C(=O)N[C@@H](C)C(=O)N[C@H](C(=O)N[C@@H](CC(C)C)C(=O)N1CCC[C@H]1C(=O)N[C@@H](CCCNC(=N)N)C(=O)N[C@H](C(=O)N[C@@H](CCC(=O)O)C(=O)N[C@H](C(=O)NCC(=O)N[C@@H](CO)C(=O)N[C@@H](CCC(=O)O)C(=O)N[C@@H](CO)C(=O)N1CCC[C@H]1C(N)=O)[C@@H](C)O)[C@@H](C)O)[C@@H](C)O) [[N-terminal(C18 diacid-gGlu), des1, 30S]mimylin] | 830 pM |
| {C18 diacid}-EASEVSTAVLGRLSAELHELATLPRTETGPESP-NH2 (SMILES CC(C)C[C@H](NC(=O)[C@H](CCC(=O)O)NC(=O)[C@H](Cc1c[nH]cn1)NC(=O)[C@H](CC(C)C)NC(=O)[C@H](CCC(=O)O)NC(=O)[C@H](C)NC(=O)[C@H](CO)NC(=O)[C@H](CC(C)C)NC(=O)[C@H](CCCNC(=N)N)NC(=O)CNC(=O)[C@H](CC(C)C)NC(=O)[C@@H](NC(=O)[C@H](C)NC(=O)[C@@H](NC(=O)[C@H](CO)NC(=O)[C@@H](NC(=O)[C@H](CCC(=O)O)NC(=O)[C@H](CO)NC(=O)[C@H](C)NC(=O)[C@H](CCC(=O)O)NC(=O)CCCCCCCCCCCCCCCCC(=O)O)C(C)C)[C@@H](C)O)C(C)C)C(=O)N[C@@H](C)C(=O)N[C@H](C(=O)N[C@@H](CC(C)C)C(=O)N1CCC[C@H]1C(=O)N[C@@H](CCCNC(=N)N)C(=O)N[C@H](C(=O)N[C@@H](CCC(=O)O)C(=O)N[C@H](C(=O)NCC(=O)N1CCC[C@H]1C(=O)N[C@@H](CCC(=O)O)C(=O)N[C@@H](CO)C(=O)N1CCC[C@H]1C(N)=O)[C@@H](C)O)[C@@H](C)O)[C@@H](C)O) [[N-terminal(C18 diacid), 5V, 9V]mimylin] | 824 pM |
| {C18 diacid}-EASELSTAVIGRLSAELHELATLPRTETGPESP-NH2 (SMILES CC[C@H](C)[C@H](NC(=O)[C@@H](NC(=O)[C@H](C)NC(=O)[C@@H](NC(=O)[C@H](CO)NC(=O)[C@H](CC(C)C)NC(=O)[C@H](CCC(=O)O)NC(=O)[C@H](CO)NC(=O)[C@H](C)NC(=O)[C@H](CCC(=O)O)NC(=O)CCCCCCCCCCCCCCCCC(=O)O)[C@@H](C)O)C(C)C)C(=O)NCC(=O)N[C@@H](CCCNC(=N)N)C(=O)N[C@@H](CC(C)C)C(=O)N[C@@H](CO)C(=O)N[C@@H](C)C(=O)N[C@@H](CCC(=O)O)C(=O)N[C@@H](CC(C)C)C(=O)N[C@@H](Cc1c[nH]cn1)C(=O)N[C@@H](CCC(=O)O)C(=O)N[C@@H](CC(C)C)C(=O)N[C@@H](C)C(=O)N[C@H](C(=O)N[C@@H](CC(C)C)C(=O)N1CCC[C@H]1C(=O)N[C@@H](CCCNC(=N)N)C(=O)N[C@H](C(=O)N[C@@H](CCC(=O)O)C(=O)N[C@H](C(=O)NCC(=O)N1CCC[C@H]1C(=O)N[C@@H](CCC(=O)O)C(=O)N[C@@H](CO)C(=O)N1CCC[C@H]1C(N)=O)[C@@H](C)O)[C@@H](C)O)[C@@H](C)O) [[N-terminal(C18 diacid), 9V, 10I]mimylin] | 891 pM |

The next binders have a lower IC50 than those just listed; values first:

| IC50 | Binder |
| --- | --- |
| 400 pM | {C18 diacid}-EASEISTAILGRLSAELHELATLPRTETGPESP-NH2 (SMILES CC[C@H](C)[C@H](NC(=O)[C@H](C)NC(=O)[C@@H](NC(=O)[C@H](CO)NC(=O)[C@@H](NC(=O)[C@H](CCC(=O)O)NC(=O)[C@H](CO)NC(=O)[C@H](C)NC(=O)[C@H](CCC(=O)O)NC(=O)CCCCCCCCCCCCCCCCC(=O)O)[C@@H](C)CC)[C@@H](C)O)C(=O)N[C@@H](CC(C)C)C(=O)NCC(=O)N[C@@H](CCCNC(=N)N)C(=O)N[C@@H](CC(C)C)C(=O)N[C@@H](CO)C(=O)N[C@@H](C)C(=O)N[C@@H](CCC(=O)O)C(=O)N[C@@H](CC(C)C)C(=O)N[C@@H](Cc1c[nH]cn1)C(=O)N[C@@H](CCC(=O)O)C(=O)N[C@@H](CC(C)C)C(=O)N[C@@H](C)C(=O)N[C@H](C(=O)N[C@@H](CC(C)C)C(=O)N1CCC[C@H]1C(=O)N[C@@H](CCCNC(=N)N)C(=O)N[C@H](C(=O)N[C@@H](CCC(=O)O)C(=O)N[C@H](C(=O)NCC(=O)N1CCC[C@H]1C(=O)N[C@@H](CCC(=O)O)C(=O)N[C@@H](CO)C(=O)N1CCC[C@H]1C(N)=O)[C@@H](C)O)[C@@H](C)O)[C@@H](C)O) [[N-terminal(C18 diacid), 5I, 9I]mimylin] |
| 375 pM | {C18 diacid}-EPSELSTAVLGRLSAELHELATLPRTETGPESP-NH2 (SMILES CC(C)C[C@H](NC(=O)[C@H](CCC(=O)O)NC(=O)[C@H](Cc1c[nH]cn1)NC(=O)[C@H](CC(C)C)NC(=O)[C@H](CCC(=O)O)NC(=O)[C@H](C)NC(=O)[C@H](CO)NC(=O)[C@H](CC(C)C)NC(=O)[C@H](CCCNC(=N)N)NC(=O)CNC(=O)[C@H](CC(C)C)NC(=O)[C@@H](NC(=O)[C@H](C)NC(=O)[C@@H](NC(=O)[C@H](CO)NC(=O)[C@H](CC(C)C)NC(=O)[C@H](CCC(=O)O)NC(=O)[C@H](CO)NC(=O)[C@@H]1CCCN1C(=O)[C@H](CCC(=O)O)NC(=O)CCCCCCCCCCCCCCCCC(=O)O)[C@@H](C)O)C(C)C)C(=O)N[C@@H](C)C(=O)N[C@H](C(=O)N[C@@H](CC(C)C)C(=O)N1CCC[C@H]1C(=O)N[C@@H](CCCNC(=N)N)C(=O)N[C@H](C(=O)N[C@@H](CCC(=O)O)C(=O)N[C@H](C(=O)NCC(=O)N1CCC[C@H]1C(=O)N[C@@H](CCC(=O)O)C(=O)N[C@@H](CO)C(=O)N1CCC[C@H]1C(N)=O)[C@@H](C)O)[C@@H](C)O)[C@@H](C)O) [[N-terminal(C18 diacid), 2P, 9V]mimylin] |
| 374 pM | {C18 diacid}-EASELSTALAGRLSAELHELATLPRTETGPESP-NH2 (SMILES CC(C)C[C@H](NC(=O)[C@H](C)NC(=O)[C@@H](NC(=O)[C@H](CO)NC(=O)[C@H](CC(C)C)NC(=O)[C@H](CCC(=O)O)NC(=O)[C@H](CO)NC(=O)[C@H](C)NC(=O)[C@H](CCC(=O)O)NC(=O)CCCCCCCCCCCCCCCCC(=O)O)[C@@H](C)O)C(=O)N[C@@H](C)C(=O)NCC(=O)N[C@@H](CCCNC(=N)N)C(=O)N[C@@H](CC(C)C)C(=O)N[C@@H](CO)C(=O)N[C@@H](C)C(=O)N[C@@H](CCC(=O)O)C(=O)N[C@@H](CC(C)C)C(=O)N[C@@H](Cc1c[nH]cn1)C(=O)N[C@@H](CCC(=O)O)C(=O)N[C@@H](CC(C)C)C(=O)N[C@@H](C)C(=O)N[C@H](C(=O)N[C@@H](CC(C)C)C(=O)N1CCC[C@H]1C(=O)N[C@@H](CCCNC(=N)N)C(=O)N[C@H](C(=O)N[C@@H](CCC(=O)O)C(=O)N[C@H](C(=O)NCC(=O)N1CCC[C@H]1C(=O)N[C@@H](CCC(=O)O)C(=O)N[C@@H](CO)C(=O)N1CCC[C@H]1C(N)=O)[C@@H](C)O)[C@@H](C)O)[C@@H](C)O) [[N-terminal(C18 diacid), 9L, 10A]mimylin] |
| 352 pM | {C18 diacid}-EAPELSTAVLGRLSAELHELATLPRTETGPESP-NH2 (SMILES CC(C)C[C@H](NC(=O)[C@H](CCC(=O)O)NC(=O)[C@H](Cc1c[nH]cn1)NC(=O)[C@H](CC(C)C)NC(=O)[C@H](CCC(=O)O)NC(=O)[C@H](C)NC(=O)[C@H](CO)NC(=O)[C@H](CC(C)C)NC(=O)[C@H](CCCNC(=N)N)NC(=O)CNC(=O)[C@H](CC(C)C)NC(=O)[C@@H](NC(=O)[C@H](C)NC(=O)[C@@H](NC(=O)[C@H](CO)NC(=O)[C@H](CC(C)C)NC(=O)[C@H](CCC(=O)O)NC(=O)[C@@H]1CCCN1C(=O)[C@H](C)NC(=O)[C@H](CCC(=O)O)NC(=O)CCCCCCCCCCCCCCCCC(=O)O)[C@@H](C)O)C(C)C)C(=O)N[C@@H](C)C(=O)N[C@H](C(=O)N[C@@H](CC(C)C)C(=O)N1CCC[C@H]1C(=O)N[C@@H](CCCNC(=N)N)C(=O)N[C@H](C(=O)N[C@@H](CCC(=O)O)C(=O)N[C@H](C(=O)NCC(=O)N1CCC[C@H]1C(=O)N[C@@H](CCC(=O)O)C(=O)N[C@@H](CO)C(=O)N1CCC[C@H]1C(N)=O)[C@@H](C)O)[C@@H](C)O)[C@@H](C)O) [[N-terminal(C18 diacid), 3P, 9V]mimylin] |
| 240 pM | {C20 diacid}-EASELSTAALGRLSAELHELATLPRTETGSGSP-NH2 [[N-terminal(C20 diacid), 30S, 31G]mimylin] |
